According to the supplement of paper PMC11246515:
± gives the standard deviation of the averaged measurements.

Assay: total protein half-life in vivo (active degradation + dilution); higher = more stable protein
[1] = E. coli NCM3722 delta-clpP delta-lon delta-hslV, growth: N-lim chemostat, doubling time 6 h
[2] = E. coli NCM3722 delta-clpP, growth: N-lim chemostat, doubling time 6 h
[3] = E. coli NCM3722 delta-hslV, growth: N-lim chemostat, doubling time 6 h
[4] = E. coli NCM3722 delta-lon, growth: N-lim chemostat, doubling time 6 h
[5] = E. coli NCM3722 delta-smpB, growth: N-lim chemostat, doubling time 6 h
[6] = wild type E. coli NCM3722, growth: C-lim chemostat, doubling time 3 h
[7] = wild type E. coli NCM3722, growth: C-lim chemostat, doubling time 6 h
[8] = wild type E. coli NCM3722, growth: C-lim chemostat, doubling time 12 h
[9] = wild type E. coli NCM3722, growth: N-lim chemostat, doubling time 6 h
[10] = wild type E. coli NCM3722, growth: N-lim chemostat, doubling time 12 h
[11] = wild type E. coli NCM3722, growth: P-lim chemostat, doubling time 6 h
[12] = wild type E. coli NCM3722, growth: P-lim chemostat, doubling time 12 h

| Sequence | total protein half-life in vivo [1] | total protein half-life in vivo [2] | total protein half-life in vivo [3] | total protein half-life in vivo [4] | total protein half-life in vivo [5] | total protein half-life in vivo [6] | total protein half-life in vivo [7] | total protein half-life in vivo [8] | total protein half-life in vivo [9] | total protein half-life in vivo [10] | total protein half-life in vivo [11] | total protein half-life in vivo [12] |
| --- | --- | --- | --- | --- | --- | --- | --- | --- | --- | --- | --- | --- |
| MTQQPQAKYRHDYRAPDYQITDIDLTFDLDAQKTVVTAVSQAVRHGASDAPLRLNGEDLKLVSVHINDEPWTAWKEEEGALVISNLPERFTLKIINEISPAANTALEGLYQSGDALCTQCEAEGFRHITYYLDRPDVLARFTTKIIADKIKYPFLLSNGNRVAQGELENGRHWVQWQDPFPKPCYLFALVAGDFDVLRDTFTTRSGREVALELYVDRGNLDRAPWAMTSLKNSMKWDEERFGLEYDLDIYMIVAVDFFNMGAMENKGLNIFNSKYVLARTDTATDKDYLDIERVIGHEYFHNWTGNRVTCRDWFQLSLKEGLTVFRDQEFSSDLGSRAVNRINNVRTMRGLQFAEDASPMAHPIRPDMVIEMNNFYTLTVYEKGAEVIRMIHTLLGEENFQKGMQLYFERHDGSAATCDDFVQAMEDASNVDLSHFRRWYSQSGTPIVTVKDDYNPETEQYTLTISQRTPATPDQAEKQPLHIPFAIELYDNEGKVIPLQKGGHPVNSVLNVTQAEQTFVFDNVYFQPVPALLCEFSAPVKLEYKWSDQQLTFLMRHARNDFSRWDAAQSLLATYIKLNVARHQQGQPLSLPVHVADAFRAVLLDEKIDPALAAEILTLPSVNEMAELFDIIDPIAIAEVREALTRTLATELADELLAIYNANYQSEYRVEHEDIAKRTLRNACLRFLAFGETHLADVLVSKQFHEANNMTDALAALSAAVAAQLPCRDALMQEYDDKWHQNGLVMDKWFILQATSPAANVLETVRGLLQHRSFTMSNPNRIRSLIGAFAGSNPAAFHAEDGSGYLFLVEMLTDLNSRNPQVASRLIEPLIRLKRYDAKRQEKMRAALEQLKGLENLSGDLYEKITKALA | 5.11 ± 0.53 h | 4.45 ± 0.1 h | 4.27 ± 0.086 h | 4.48 ± 0.29 h | 4.38 ± 0.084 h | 3.05 ± 0.19 h | 5.55 ± 0.11 h | 10.5 ± 0.56 h | 4.36 ± 0.11 h | 6.63 ± 0.16 h | 5.89 ± 0.069 h | 11.3 ± 0.68 h |
| MVIKAQSPAGFAEEYIIESIWNNRFPPGTILPAERELSELIGVTRTTLREVLQRLARDGWLTIQHGKPTKVNNFWETSGLNILETLARLDHESVPQLIDNLLSVRTNISTIFIRTAFRQHPDKAQEVLATANEVADHADAFAELDYNIFRGLAFASGNPIYGLILNGMKGLYTRIGRHYFANPEARSLALGFYHKLSALCSEGAHDQVYETVRRYGHESGEIWHRMQKNLPGDLAIQGR [P0A8V6] | 5.22 ± 0.34 h | 5.72 ± 0.28 h | 5.12 ± 0.56 h | 6.05 ± 0.6 h | 5.01 ± 0.18 h | 2.88 ± 0.091 h | 6.27 ± 0.67 h | 9.92 ± 0.94 h | 5.93 ± 0.23 h | 10.3 ± 0.15 h | 4.58 ± 0.83 h | 8.62 ± 1.3 h |
| MSAIENFDAHTPMMQQYLRLKAQHPEILLFYRMGDFYELFYDDAKRASQLLDISLTKRGASAGEPIPMAGIPYHAVENYLAKLVNQGESVAICEQIGDPATSKGPVERKVVRIVTPGTISDEALLQERQDNLLAAIWQDSKGFGYATLDISSGRFRLSEPADRETMAAELQRTNPAELLYAEDFAEMSLIEGRRGLRRRPLWEFEIDTARQQLNLQFGTRDLVGFGVENAPRGLCAAGCLLQYAKDTQRTTLPHIRSITMEREQDSIIMDAATRRNLEITQNLAGGAENTLASVLDCTVTPMGSRMLKRWLHMPVRDTRVLLERQQTIGALQDFTAGLQPVLRQVGDLERILARLALRTARPRDLARMRHAFQQLPELRAQLETVDSAPVQALREKMGEFAELRDLLERAIIDTPPVLVRDGGVIASGYNEELDEWRALADGATDYLERLEVRERERTGLDTLKVGFNAVHGYYIQISRGQSHLAPINYMRRQTLKNAERYIIPELKEYEDKVLTSKGKALALEKQLYEELFDLLLPHLEALQQSASALAELDVLVNLAERAYTLNYTCPTFIDKPGIRITEGRHPVVEQVLNEPFIANPLNLSPQRRMLIITGPNMGGKSTYMRQTALIALMAYIGSYVPAQKVEIGPIDRIFTRVGAADDLASGRSTFMVEMTETANILHNATEYSLVLMDEIGRGTSTYDGLSLAWACAENLANKIKALTLFATHYFELTQLPEKMEGVANVHLDALEHGDTIAFMHSVQDGAASKSYGLAVAALAGVPKEVIKRARQKLRELESISPNAAATQVDGTQMSLLSVPEETSPAVEALENLDPDSLTPRQALEWIYRLKSLV | 5.91 ± 0.07 h | 5.059 ± 0.028 h | 3.51 ± 0.062 h | 3.99 ± 0.046 h | 3.329 ± 0.022 h | 2.84 ± 0.36 h | 4.96 ± 0.41 h | 9.15 ± 1.4 h | 3.7765 ± 0.0035 h | 5.56 ± 0.91 h | 4.78 ± 0.42 h | 7.5 ± 0.22 h |
| MDICSRNKKLTIRRPAILVALALLLCSCKSTPPESMVTPPAGSKPPATTQQSSQPMRGIWLATVSRLDWPPVSSVNISNPTSRARVQQQAMIDKLDHLQRLGINTVFFQVKPDGTALWPSKILPWSDLMTGKIGENPGYDPLQFMLDEAHKRGMKVHAWFNPYRVSVNTKPGTIRELNSTLSQQPASVYVQHRDWIRTSGDRFVLDPGIPEVQDWITSIVAEVVSRYPVDGVQFDDYFYTESPGSRLNDNETYRKYGGAFASKADWRRNNTQQLIAKVSHTIKSIKPGVEFGVSPAGVWRNRSHDPLGSDTRGAAAYDESYADTRRWVEQGLLDYIAPQIYWPFSRSAARYDVLAKWWADVVKPTRTRLYIGIAFYKVGEPSKIEPDWMINGGVPELKKQLDLNDAVPEISGTILFREDYLNKPQTQQAVSYLQSRWGS | > 8 h | 4.93 ± 1.2 h | 1.61 h | 2.787 ± 0.01 h | 1.73 ± 0.075 h |  |  |  | 1.89 ± 0.55 h | 3.44 ± 0.99 h | 2.29 ± 0.57 h | 4.65 ± 0.26 h |
| MDSARALIARGWGVSLVSRCLRVSRAQLHVILRRTDDWMDGRRSRHTDDTDVLLRIHHVIGELPTYGYRRVWALLRRQAELDGMPAINAKRVYRIMRQNALLLERKPAVPPSKRAHTGRVAVKESNQRWCSDGFEFCCDNGERLRVTFALDCCDREALHWAVTTGGFNSETVQDVMLGAVERRFGNDLPSSPVEWLTDNGSCYRANETRQFARMLGLEPKNTAVRSPESNGIAESFVKTIKRDYISIMPKPDGLTAAKNLAEAFEHYNEWHPHSALGYRSPREYLRQRACNGLSDNRCLEI [P0CF53] | 5.39 ± 1.7 h |  |  |  |  |  |  |  |  |  |  |  |
